Experimental data from patent publication US20230201308A1, “TREATMENT OF CORONAVIRUS INFECTION WITH […]” (Eiger Biopharmaceuticals, Inc., priority 2020, published 2023).

Experiment: Third trial (TOGETHER): treatment emergent adverse events and drug adherence
Format: in vivo, human
From the text: An adverse event (AE) is any adverse change from the participant's baseline (pre-treatment) condition, including intercurrent illness which occurs during the course of the trial, after the consent form has been signed, whether the event is considered related to treatment or not.
A serious adverse event (SAE) is any adverse event that at any dose: • results in death (grade 5 event) • is life-threatening (grade 4 event) • requires inpatient hospitalization or prolongation of existing hospitalization • results in persistent or significant disability or incapacity • is a congenital anomaly/birth defect
Study personnel collected outcome data via in-person, and via telephone or WhatsApp using video-teleconferencing on Days 1, 2, 3, 4, 5, 7, 10, 14, and 28. Adverse events were recorded at the time they occurred. All serious and non-serious adverse events were reported to study personnel as per local regulatory requirements. Reportable adverse events included serious adverse events, adverse events resulting in study medication discontinuation, and adverse events assessed as possibly related to study medication.

[1] = Treated within 3 days of symptom onset, n=539 vs placebo 586
[2] = Treated within 5 days of symptom onset, n=800 vs placebo 879
[3] = Unvaccinated population, n=143 vs placebo 176

B1: pegylated interferon lambda-1a (protein)
chain: MKPTTTGKGCHIGRFKSLSPQELASFKKARDALEESLKLKNWSCSSPVFPGNWDLRLLQVRERPVALEAELALTLKVLEAAAGPALEDVLDQPLHTLHHILSQLQACIQPQPTAGPRPRGRLHHWLHRLQEAPKKESAGCLEASVTFNLFRLLTRDLKYVADGNLSLRTSTHPEST
modifications: PEG
notes: 180 mcg subcutaneous injection
TEAE, Grade 2: n (N = 931): 86 | TEAE, Grade 3: % (N = 931): (2.3%) | TEAE, Grade 3: n (N = 931): 21 | TEAE, Grade 4: % (N = 931): (0.9%) | TEAE, Grade 4: n (N = 931): 8 | TEAE, Grade 5: % (N = 931): (0.4%) | TEAE, Grade 5: n (N = 931): 4 | Number experiencing TEAEs: Probability of Superiority (N = 931 vs placebo N = 1018): 88.5 | Number experiencing TEAEs: RR (95% CrI), estimated treatment effect (N = 931 vs placebo N = 1018): 0.88 (0.71, 1.08) | Number experiencing possibly treatment-related TEAS: Probability of Superiority (N = 931 vs placebo N = 1018): 82.8 | Number experiencing possibly treatment-related TEAS: RR (95% CrI), estimated treatment effect (N = 931 vs placebo N = 1018): 0.59 (0.18, 1.74) | Number experiencing serious TEAEs: Probability of Superiority (N = 931 vs placebo N = 1018): 93.6 | Number experiencing serious TEAEs: RR (95% CrI), estimated treatment effect (N = 931 vs placebo N = 1018): 0.72 (0.46, 1.10) | TEAE, Grade 1: Probability of Superiority (N = 931 vs placebo N = 1018): 84.5 | TEAE, Grade 1: RR (95% CrI), estimated treatment effect (N = 931 vs placebo N = 1018): 0.78 (0.48, 1.26) | TEAE, Grade 2: Probability of Superiority (N = 931 vs placebo N = 1018): 64.0 | TEAE, Grade 2: RR (95% CrI), estimated treatment effect (N = 931 vs placebo N = 1018): 0.95 (0.72, 1.25) | TEAE, Grade 3: Probability of Superiority (N = 931 vs placebo N = 1018): 93.9 | TEAE, Grade 3: RR (95% CrI), estimated treatment effect (N = 931 vs placebo N = 1018): 0.66 (0.39, 1.11) | TEAE, Grade 4: Probability of Superiority (N = 931 vs placebo N = 1018): 42.6 | TEAE, Grade 4: RR (95% CrI), estimated treatment effect (N = 931 vs placebo N = 1018): 1.09 (0.42, 2.86) | TEAE, Grade 5: Probability of Superiority (N = 931 vs placebo N = 1018): 67.5 | TEAE, Grade 5: RR (95% CrI), estimated treatment effect (N = 931 vs placebo N = 1018): 0.76 (0.22, 2.46) | TEAE, Grade 1, % of patients [1]: (0.9%) | TEAE, Grade 1, RR (95% CrI) vs placebo [1]: 0.53 (0.18, 1.38) | TEAE, Grade 2, % of patients [1]: (9.8%) | TEAE, Grade 2, RR (95% CrI) vs placebo [1]: 1.13 (0.78, 1.63) | TEAE, Grade 3, % of patients [1]: (1.3%) | TEAE, Grade 3, RR (95% CrI) vs placebo [1]: 0.47 (0.19, 1.05) | TEAE, Grade 4, % of patients [1]: (0.7%) | TEAE, Grade 4, RR (95% CrI) vs placebo [1]: 3.01 (0.61, 23.67) | TEAE, Grade 5, % of patients [1]: (0%) | TEAE, Grade 5, RR (95% CrI) vs placebo [1]: 0.21 (0.01, 1.64) | TEAE, Grade 1, % of patients [2]: (1.8%) | TEAE, Grade 1, RR (95% CrI) vs placebo [2]: 0.78 (0.40, 1.51) | TEAE, Grade 2, % of patients [2]: (8.9%) | TEAE, Grade 2, RR (95% CrI) vs placebo [2]: 0.95 (0.70, 1.29) | TEAE, Grade 3, % of patients [2]: (1.9%) | TEAE, Grade 3, RR (95% CrI) vs placebo [2]: 0.56 (0.30, 1.01) | TEAE, Grade 4, % of patients [2]: (0.8%) | TEAE, Grade 4, RR (95% CrI) vs placebo [2]: 1.99 (0.58, 7.88) | TEAE, Grade 5, % of patients [2]: (0.4%) | TEAE, Grade 5, RR (95% CrI) vs placebo [2]: 0.86 (0.20, 3.40) | TEAE, Grade 1, % of patients [3]: 5.6% | TEAE, Grade 1, RR (95% CrI) vs placebo [3]: 1.23 (0.49, 3.08) | TEAE, Grade 2, % of patients [3]: 11.9% | TEAE, Grade 2, RR (95% CrI) vs placebo [3]: 1.16 (0.63, 2.16) | TEAE, Grade 3, % of patients [3]: 3.5% | TEAE, Grade 3, RR (95% CrI) vs placebo [3]: 0.60 (0.21, 1.53) | TEAE, Grade 4, % of patients [3]: 1.4% | TEAE, Grade 4, RR (95% CrI) vs placebo [3]: 0.58 (0.12, 2.22) | TEAE, Grade 5, % of patients [3]: 0 (0%) | TEAE, Grade 5, RR (95% CrI) vs placebo [3]: 1.21 (0.03, 47.34) | treatment emergent adverse events compared to placebo (final analysis, listed as peginterferon lambda): no important differences | Premature discontinuation, Request by participant to terminate study treatment, % (n=916): (0.0%) | Premature discontinuation, reason Hospitalization, % (n=916): (0.0%) | Premature discontinuation, reason Non-compliance with Study Therapy, % (n=916): (0.0%) | Premature discontinuation, reason Other, % (n=916): (0.0%) | Prematurely discontinued study drug, % (n=916, within 28 days of randomization): (0.0%) | incidence of any adverse event compared with placebo (preliminary ITT): indistinguishable
